Molecular target: T1, proliferating cell nuclear antigen (PCNA) (human, UniProt P12004 1-261)
T1 construct: Endogenous intracellular protein, immunoprecipitated from HT29 cell lysate
Assay: not described

T1 sequence (P12004 whole entry): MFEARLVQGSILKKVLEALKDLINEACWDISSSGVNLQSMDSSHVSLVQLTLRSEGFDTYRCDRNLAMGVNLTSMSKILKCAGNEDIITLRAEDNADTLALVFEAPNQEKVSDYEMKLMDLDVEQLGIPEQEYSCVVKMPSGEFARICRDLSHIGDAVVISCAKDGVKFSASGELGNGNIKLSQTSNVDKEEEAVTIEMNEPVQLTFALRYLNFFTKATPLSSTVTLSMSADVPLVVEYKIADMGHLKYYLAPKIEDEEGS

Question: Does MPYSTELIFYIEMDP (15-residue polypeptide fragment) [polypeptide P15] bind?
Answer: binds
